This note sets out measurements from PMC3839082.

The target in the assay is hCINAP-H79G mutant (human) (UniProt Q9Y3D8). Description: SEC. For orientation: SEC sorts molecules by how far they enter the pores of the column.

The term stoichiometry N denotes a count of units in the complex or per binding partner. As to “hCINAP-H79G mutant (from UniProt Q9Y3D8 1-172) (enzyme)”, the stoichiometry N was 2.
